Laboratory results: the RNAGym collection of RNA variant scans (doi:10.1021/acssynbio.7b00057)

B1: Pistol ribozyme (parent)
chain: GGGUCGUUGUUCCAUAAUCGCGUGGAUAUGGCACGCAAGUUUCUACCGGGCACCGUAAAUGUCCGACUGGAGCCGUUCGGGCGGCUAUAAACAGACCUCAGGCCCGAAGCGUGGCGGCACCUGCCGCCGGUGGUAAAAAAGAUCGGAAGAGCACACGUCU

Variants of: B1
Assay: aptazyme ON/OFF ratio, guanine; higher = stronger switching; co-transcriptional cleavage with and without guanine

Row | Variant | aptazyme ON/OFF ratio
1 | U7C U8G G9C U11A C12A C13G | 1.11
2 | U7C G9U U10A U11C C13A | 1.11
3 | U8C G9U U10C C12U C13U | 1.16
4 | U8G G9U U10C C12G C13G | 1.25
5 | U7A G9C U11G | 1.41
6 | U7G U8G G9A U10C U11C C13A | 0.99
7 | U7A U8A G9U U10A C13A | 1.43
8 | U7A U8G G9U U10G U11A C12G C13U | 1.02
9 | U8A G9A U10A U11A C12A | 1.24
10 | U7G U8C G9U U10G U11C C13G | 1.09
11 | U7A U8A G9U U11A | 0.956
12 | U7G U8C G9U U11A C12U C13A | 1.46
13 | G9C U10C C12U | 1.12
14 | U7A U8C U10A U11A | 1.18
15 | U7A U8A U10C C12A C13U | 1.18
16 | U8A U10G C13G | 1.23
17 | G9U U10G U11C C13U | 1.14
18 | G9U U10G U11C C13G | 1.1
19 | U7C U8A G9U U10A C12G C13U | 1.25
20 | U7C U8C U11A C12U | 1.16
21 | U7A U8C G9A U10A U11A C12A | 1.31
22 | U7C G9U U10A U11A C12U C13G | 1.14
23 | U8C G9U U10G C12U | 1.35
24 | U8G G9A U10A U11G C12U C13A | 1.31

Row | Variant | aptazyme ON/OFF ratio
25 | U7G G9U U10C U11G C13A | 1.32
26 | U10G U11A C12G | 1.4
27 | U7C U8C G9A U11G C12G | 1.35
28 | G9A U10A U11A C12G C13A | 1.26
29 | U7A U8G U10C U11A C12A | 1.5
30 | U7C U8G G9C U10G U11C C13A | 1.25
31 | U7C U8A G9A U11G C12G C13G | 1.12
32 | U7A U8C G9A U10G U11A | 1.03
33 | U7A U8C G9A U10G U11G | 1.08
34 | G9C U10C U11A C12G C13A | 1.19
35 | G9C U10A C12A | 1.81
36 | U7G U10G U11A C12A C13A | 1.14
37 | U7C U8A G9U U10C | 3.35
38 | U7G U10G U11G C12U C13U | 1.36
39 | U7A G9U U11G C12G C13A | 1.26
40 | U7G G9C U11G C12U C13A | 1.43
41 | U7A G9U U10C U11C C12A C13U | 1.07
42 | G9C U10A U11C C12A C13G | 1.18
43 | U7C U8C G9C U10A U11C | 1.39
44 | U8G G9U U11G C12G C13U | 1.22
45 | U8C G9C U11C C12G | 1.26
46 | G9A U10A C13U | 1.5
47 | U8A G9C U10A U11G C12G C13A | 1.15
48 | U8C G9U U10G U11G C12A C13G | 1.07

Row | Variant | aptazyme ON/OFF ratio
49 | U7C G9A U10C U11C C12G C13U | 1.04
50 | U7G U8G U10C U11A C12U C13U | 1.31
51 | U7C U8C G9C U10C U11G C12A C13U | 1.09
52 | U7G G9C U10C U11C C12G | 1.14
53 | U8A G9A U10C U11C C12G C13U | 1.07
54 | U7G U8A G9A U11A C12G C13G | 1.09
55 | U7G U8C G9A U11C C12G | 1.4
56 | U8C G9U U10C U11C C13G | 1.02
57 | U7G U8A G9A U10G U11C C12G C13U | 1.11
58 | U7G U8G G9A U10A C12U | 1.52
59 | U7G G9U U10A U11G C12U C13G | 1.12
60 | U7C U8G G9C U10A | 1.28
61 | U7G U8C G9C U10A U11C C12G | 1.26
62 | U7G U10C C12G C13U | 1.14
63 | U7C U8G G9A U10A U11G | 1.33
64 | U7G G9C U11G C12A C13G | 1.31
65 | U7C U8G G9A C13U | 1.11
66 | U7A U10A C12U C13A | 1.18
67 | U7A U8C U11C C13A | 1.19
68 | U7C U8G G9C U10A U11C C12G C13A | 1.24
69 | U7A U8A G9A U11A C12U C13U | 1.22
70 | U8C G9C U10C U11A C12U C13G | 1.02
71 | G9A U11A C12U C13U | 1.91
72 | U7C G9C U10G U11A | 1.09

Row | Variant | aptazyme ON/OFF ratio
73 | U7C U8C U10C U11C C12A C13G | 1.24
74 | U7C G9C U10C C12G C13A | 1.09
75 | U7A U8C G9A | 1.74
76 | U7G G9U U11G C12G C13U | 1.29
77 | U7G G9U U11G C12G C13A | 1.19
78 | U8G U10A C13U | 1.19
79 | U8A G9C U10C U11A C12G C13G | 1.12
80 | U7C U8C U11C C12G | 1.16
81 | U8C G9U C13G | 1.03
82 | U7G U8A G9U U10G U11G C12A C13U | 1.25
83 | U7A U8A G9A C12G C13A | 1.09
84 | U7G U8A U10C C12G C13A | 1.39
85 | U8C G9A C12U C13A | 1.17
86 | U7C U8G G9U U10A C12G C13A | 1.13
87 | U7C U8C G9A U10A U11C C13A | 1.16
88 | U7G U8A G9A U10A C12A | 1.17
89 | U7C U8C G9A U10C U11A C12U C13A | 1.21
90 | U7A U8C U11G C12U | 1.28
91 | U7C U8G G9C U11C C12U | 1.33
92 | U7G U8G U10G U11A C13U | 1.24
93 | U7G U11A | 2.37
94 | U7A U8A G9A U10A C12G C13U | 1.28
95 | U7A G9U U10G U11G C13G | 1.17
96 | U7G U8C G9A U10G C12U | 1.35

Row | Variant | aptazyme ON/OFF ratio
97 | U7C U8C G9A U11C C12A C13A | 1.29
98 | U8C G9C U11G C12A C13G | 1.14
99 | U7G C12A C13U | 1.21
100 | G9A U10G U11A C13G | 1.04
101 | U7C U8G G9A U10G U11G C12G | 1.27
102 | G9C U10C U11G C13G | 1.08
103 | U7A U8C G9A U10A U11A C13U | 1.18
104 | U8C G9A U10A U11G C12G C13G | 1.17
105 | U7A U8G G9U C12U C13A | 1.64
106 | U7G G9A U10C C12U C13G | 1.15
107 | U7A U8C U10C U11G C12U C13A | 1.28
108 | U7G U8C U11A C12G | 1.12
109 | U7A U8A G9U U10C U11C C12U C13U | 1.08
110 | U7C U8G G9C U11C C13U | 1.38
111 | U7C U8A G9U U10G C13A | 1.41
112 | U7G U8C G9A C12U C13G | 1.02
113 | U8C G9C U11A C12A C13G | 1.12
114 | U7A G9U U10C U11C C12G | 1.05
115 | U7G U8C U11A C12G C13G | 1.07
116 | U7G U8G G9U U10A U11A C12A C13U | 1.29
117 | U7G U8G G9U U10A U11A C12A C13A | 1.02
118 | U7A U8A U10G C12A C13U | 1.19
119 | U7A U8G G9C U10A U11C C12A | 1.29
120 | U7A U8C U10C C12A C13U | 1.26

Row | Variant | aptazyme ON/OFF ratio
121 | U7A U8A U10G U11G C12A C13U | 1.34
122 | U7A U8G G9U U10G U11G C12U C13A | 1.38
123 | U7G G9C U11A C12U C13A | 1.42
124 | U7A G9C U10A U11C C13U | 1.05
125 | U7G U8C G9U U10G U11A C12A C13G | 1.15
126 | U7G U8C G9U U10G U11A C12A C13A | 1.12
127 | U7G U8C U10C U11C C12G C13G | 1.06
128 | G9U U10A U11G C12U | 1.27
129 | U7G U8A U10C U11A C12G C13G | 1.22
130 | U7G U8A U10C U11A C12G C13A | 1.25
131 | U7G U8A G9U U10C U11C C12A C13A | 1.09
132 | U7G G9C U10A U11A C12U C13A | 1.29
133 | U7A U8A G9A U10A U11A | 1.15
134 | U8G G9C U10G U11G C12A C13U | 1.3
135 | U7A U8C G9A U10G U11C C12U C13U | 1.16
136 | U7A U8A G9A U10C U11C C12G C13U | 1
137 | U7A G9U U11A C12U C13A | 1.41
138 | U7G U8G G9U U11C C12A C13A | 1.23
139 | U7A U8G G9U C12A C13U | 1.2
140 | U7A G9A U11G C13U | 1.38
141 | U7G U8A G9U C12A C13U | 1.1
142 | U8C G9A U11A C12A C13U | 1.34
143 | U10G C12A | 1.41
144 | U7C G9A U10G C12U C13G | 1.17

Row | Variant | aptazyme ON/OFF ratio
145 | U7A U8A G9A C12A C13U | 1.07
146 | U7A G9C U10G U11C C12U C13A | 1.05
147 | U7A U8A G9C U10C | 1.8
148 | U8A G9C U10A U11C C12G C13A | 1.13
149 | U7C U10A C12U | 1.09
150 | U7G U8G U11C | 1.35
151 | U7C U8C G9U U10A C12U C13A | 1.07
152 | U7A U8A U10C C13G | 1.09
153 | U7C U8A G9C U10G C12G C13G | 1.13
154 | C12A | 1.76
155 | U8A G9C U10G U11G C12U C13G | 1.08
156 | U7A U8C G9A U10A C13U | 1.2
157 | U7A U8G G9C U10A U11A C13U | 1.26
158 | U7C U8A U11G C12U | 1.3
159 | U7C U8G G9C U10C C12U | 1.27
160 | U10G C12G C13A | 1.17
161 | U7A U8A G9A U10G U11G C12U C13G | 1.31
162 | U8A G9A U10C U11C C12A C13A | 1.07
163 | U7C G9A U11G C12G C13A | 1.19
164 | U7G G9A U10A U11A C12U C13U | 1.17
165 | U7G G9C U10A U11A C12A C13G | 1.15
166 | U7G U8G G9U U11G C13U | 1.42
167 | U7C G9A U11G C12U | 1.27
